The target of test [1] is T1, recombinant human IL13 (human, UniProt P35225 35-146, limits assumed).
T1 construct: also called Antigen2
Put plainly: SPR, BIACORE 3000; antibody captured by anti-human Fc, antigen 0-25 nM as analyte. For orientation: In SPR one partner is held on a chip, and binding of the other changes the refractive index at the surface.
T1 sequence (P35225 35-146 limits assumed): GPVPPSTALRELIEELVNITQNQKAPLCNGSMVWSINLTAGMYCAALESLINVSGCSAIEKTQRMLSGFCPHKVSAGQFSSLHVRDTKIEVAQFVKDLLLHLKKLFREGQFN
Method: Kinetic characterization of purified antibodies was performed using surface plasmon resonance technology on a BIACORE 3000 (GE Healthcare). […] Chip surfaces were regenerated with 10 mM glycine, pH 2.5. Kinetic parameters were analyzed and calculated in the BIAevaluation program package v4.1 using a flow cell without captured antibody as reference.

Test [2] concerns the target T1, recombinant human IL13. The test is described as follows: SPR, Biacore 3000; CODV-Ig captured by anti-human Fc, antigen as analyte.
Method: (§1) Kinetic binding analysis by Biacore was performed as follows. Surface plasmon resonance technology on a Biacore 3000 (GE Healthcare) was used for detailed kinetic characterization of purified antibodies. […] Chip surfaces were regenerated with 10 mM glycine pH 2.5. Kinetic parameters were analyzed and calculated in the BIAevaluation program package v4.1 using a flow cell without captured antibody as a reference.
For test [3], the target named is T2, recombinant human IL4 (human, UniProt P05112 25-153).
T2 construct: also called Antigen1
T2 sequence (looked up): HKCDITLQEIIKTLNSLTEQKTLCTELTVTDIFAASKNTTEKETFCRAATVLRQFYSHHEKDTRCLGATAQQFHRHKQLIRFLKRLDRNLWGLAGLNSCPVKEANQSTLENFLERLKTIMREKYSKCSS
The test is described as above.
Method: as §1

For test [4], the target named is T3, recombinant human IL4 (human, UniProt P05112 25-153).
T3 sequence (looked up): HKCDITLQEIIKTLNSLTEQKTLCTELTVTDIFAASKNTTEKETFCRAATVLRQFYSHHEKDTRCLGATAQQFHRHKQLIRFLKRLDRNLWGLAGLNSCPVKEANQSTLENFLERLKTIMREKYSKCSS
The test is described as follows: cell-based or functional assay.

The target of test [5] is recombinant human IL13 (human, UniProt P35225 35-146, limits assumed). Put plainly: cell-based or functional assay.
Target sequence in this assay (P35225 35-146 limits assumed): as the sequence (P35225 35-146 limits assumed) above
The target of test [6] is T3, recombinant human IL4. Put plainly: cell-based or functional assay. This is another data set of the same source.
Test [7] concerns the target T3, recombinant human IL4. The test is described as follows: SPR (Biacore 3000), antibody captured, antigen as analyte.
Method: as §1
Test [8] concerns the target T3, recombinant human IL4. The test is described as above. This is another data set of the same source.
Method: as §1
In test [9] the target is T3, recombinant human IL4. Put plainly: SPR (Biacore 3000), CODV-Fab captured with anti-human Fab capture kit, antigen as analyte.
Method: as §1

We go through five molecules from US20180155450A1 (Sanofi, published 2018).

A word on the Kd: it is the constant that tells how readily two partners part at equilibrium.

Like-named read-outs stand apart in the source and are kept apart here.

B1: parental anti-IL13 mAb (antibody, V domains shown)
VH: EVQLKESGPGLVAPGGSLSITCTVSGFSLTDSSINWVRQPPGKGLEWLGMIWGDGRIDYADALKSRLSISKDSSKSQVFLEMTSLRTDDTATYYCARDGYFPYAMDFWGQGTSVTVSS
VL: DIVLTQSPASLAVSLGQRATISCRASESVDSYGQSYMHWYQQKAGQPPKLLIYLASNLESGVPARFSGSGSRTDFTLTIDPVQAEDAATYYCQQNAEDSRTFGGGTKLEIK
notes: also called parental humanized anti-IL13; BB13
In the case of B1, the Kd with recombinant human IL13 [1] is 81.8 pM.

B2: CODV-Ig Batch ID 130 (IL4 × IL13 on LC; L1=1, L2=4, L3=2, L4=4) (bispecific antibody)
chain 1: not shown
chain 2: DIQMTQSPASLSVSVGDTITLTCHASQNIDVWLSWFQQKPGNIPKLLIYKASNLHTGVPSRFSGSGSGTGFTLTISSLQPEDIATYYCQQAHSYPFTFGGGTKLEIKGDIVLTQSPASLAVSLGQRATISCRASESVDSYGQSYMHWYQQKAGQPPKLLIYLASNLESGVPARFSGSGSRTDFTLTIDPVQAEDAATYYCQQNAEDSRTFGGGTKLEIKGGGGRTVAAPSVFIFPPSDEQLKSGTASVVCLLNNFYPREAKVQWKVDNALQSGNSQESVTEQDSKDSTYSLSSTLTLSKADYEKHKVYACEVTHQGLSSPVTKSFNRGEC
Consider B2, for which the results for the Kd with recombinant human IL13 [2] and in the test with recombinant human IL4 [3] were 57 pM and 4 pM, respectively.

B3: CODV-Ig Batch ID 601 (Batch ID 204 with P344C & A432C in IGHG1) (bispecific antibody, human IgG1, kappa)
heavy: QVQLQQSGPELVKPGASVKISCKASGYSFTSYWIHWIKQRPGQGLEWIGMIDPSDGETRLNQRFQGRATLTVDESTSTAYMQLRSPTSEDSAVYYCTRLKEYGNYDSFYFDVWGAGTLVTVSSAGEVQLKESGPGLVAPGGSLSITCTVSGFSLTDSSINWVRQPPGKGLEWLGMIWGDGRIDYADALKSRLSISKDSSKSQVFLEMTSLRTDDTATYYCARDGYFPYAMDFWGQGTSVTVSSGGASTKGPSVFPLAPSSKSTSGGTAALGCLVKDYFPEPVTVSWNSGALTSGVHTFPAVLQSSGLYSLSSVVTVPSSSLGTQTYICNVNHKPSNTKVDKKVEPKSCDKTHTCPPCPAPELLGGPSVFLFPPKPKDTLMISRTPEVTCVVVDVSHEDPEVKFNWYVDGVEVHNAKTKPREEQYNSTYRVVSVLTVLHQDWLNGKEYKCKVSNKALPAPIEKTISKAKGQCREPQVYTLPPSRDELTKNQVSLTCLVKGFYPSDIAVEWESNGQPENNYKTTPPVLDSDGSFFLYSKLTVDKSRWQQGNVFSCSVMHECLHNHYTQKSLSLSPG
light: DIVLTQSPASLAVSLGQRATISCRASESVDSYGQSYMHWYQQKAGQPPKLLIYLASNLESGVPARFSGSGSRTDFTLTIDPVQAEDAATYYCQQNAEDSRTFGGGTKLEIKGGGGGGGDIQMTQSPASLSVSVGDTITLTCHASQNIDVWLSWFQQKPGNIPKLLIYKASNLHTGVPSRFSGSGSGTGFTLTISSLQPEDIATYYCQQAHSYPFTFGGGTKLEIKRGGGGGRTVAAPSVFIFPPSDEQLKSGTASVVCLLNNFYPREAKVQWKVDNALQSGNSQESVTEQDSKDSTYSLSSTLTLSKADYEKHKVYACEVTHQGLSSPVTKSFNRGEC
On to B3, for which the “IC50 Cellular Assay IL4 [nM] (HEK-Blue IL-4/IL-13 reporter cells, SEAP)” value with recombinant human IL4 [4] worked out at 0.032 nM. In addition, in the test with recombinant human IL13 [5], the “IC50 Cellular Assay IL13 [nM] (HEK-Blue IL-4/IL-13 reporter cells, SEAP)” value stood at 1.7 nM.

B4: CODV-Ig Batch ID 204 (IL4 × IL13 on HC; L1=7, L2=5, L3=1, L4=2) (bispecific antibody)
heavy: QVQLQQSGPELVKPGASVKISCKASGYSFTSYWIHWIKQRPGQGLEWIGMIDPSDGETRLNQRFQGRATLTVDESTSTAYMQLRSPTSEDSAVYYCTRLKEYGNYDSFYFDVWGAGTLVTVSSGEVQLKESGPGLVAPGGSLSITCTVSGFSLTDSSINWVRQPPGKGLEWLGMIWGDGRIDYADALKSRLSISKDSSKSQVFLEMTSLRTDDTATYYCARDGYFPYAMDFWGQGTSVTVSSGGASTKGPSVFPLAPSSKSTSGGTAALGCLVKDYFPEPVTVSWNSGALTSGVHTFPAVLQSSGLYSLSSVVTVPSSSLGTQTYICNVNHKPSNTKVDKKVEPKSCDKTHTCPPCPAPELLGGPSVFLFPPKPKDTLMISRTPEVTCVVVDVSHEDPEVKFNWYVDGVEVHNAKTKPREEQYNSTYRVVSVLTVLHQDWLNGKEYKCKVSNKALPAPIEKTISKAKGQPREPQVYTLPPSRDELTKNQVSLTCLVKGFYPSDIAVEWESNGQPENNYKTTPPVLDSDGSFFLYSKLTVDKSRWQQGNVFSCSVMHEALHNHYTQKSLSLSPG
light: DIVLTQSPASLAVSLGQRATISCRASESVDSYGQSYMHWYQQKAGQPPKLLIYLASNLESGVPARFSGSGSRTDFTLTIDPVQAEDAATYYCQQNAEDSRTFGGGTKLEIKGGGGGGGDIQMTQSPASLSVSVGDTITLTCHASQNIDVWLSWFQQKPGNIPKLLIYKASNLHTGVPSRFSGSGSGTGFTLTISSLQPEDIATYYCQQAHSYPFTFGGGTKLEIKGGGGGRTVAAPSVFIFPPSDEQLKSGTASVVCLLNNFYPREAKVQWKVDNALQSGNSQESVTEQDSKDSTYSLSSTLTLSKADYEKHKVYACEVTHQGLSSPVTKSFNRGEC
notes: 704 prints 'IL13 × IL4' and format 'CODV'; also called 801; 704
Take B4: the “IC50 Cellular Assay IL4 [nM] (HEK-Blue IL-4/IL-13 reporter cells, SEAP)” value with recombinant human IL4 [6] stood at 0.045 nM. Further, the Kd with recombinant human IL4 [7] and in the test with recombinant human IL4 [8] was 3 pM each time.

B5: CODV-Fab Batch ID 421 (IL4 × IL13; L1=7, L2=5, L3=1, L4=2) (bispecific antibody)
heavy: QVQLQQSGPELVKPGASVKISCKASGYSFTSYWIHWIKQRPGQGLEWIGMIDPSDGETRLNQRFQGRATLTVDESTSTAYMQLRSPTSEDSAVYYCTRLKEYGNYDSFYFDVWGAGTLVTVSSGEVQLKESGPGLVAPGGSLSITCTVSGFSLTDSSINWVRQPPGKGLEWLGMIWGDGRIDYADALKSRLSISKDSSKSQVFLEMTSLRTDDTATYYCARDGYFPYAMDFWGQGTSVTVSSGGASTKGPSVFPLAPSSKSTSGGTAALGCLVKDYFPEPVTVSWNSGALTSGVHTFPAVLQSSGLYSLSSVVTVPSSSLGTQTYICNVNHKPSNTKVDKKVEPKSCDKTHTHHHHHH
light: DIVLTQSPASLAVSLGQRATISCRASESVDSYGQSYMHWYQQKAGQPPKLLIYLASNLESGVPARFSGSGSRTDFTLTIDPVQAEDAATYYCQQNAEDSRTFGGGTKLEIKGGGGGGGDIQMTQSPASLSVSVGDTITLTCHASQNIDVWLSWFQQKPGNIPKLLIYKASNLHTGVPSRFSGSGSGTGFTLTISSLQPEDIATYYCQQAHSYPFTFGGGTKLEIKGGGGGRTVAAPSVFIFPPSDEQLKSGTASVVCLLNNFYPREAKVQWKVDNALQSGNSQESVTEQDSKDSTYSLSSTLTLSKADYEKHKVYACEVTHQGLSSPVTKSFNRGEC
In the case of B5, the Kd in the test with recombinant human IL4 [9] was found to be 12 pM.
